According to patent US20200062804A1 (ADRX, published 2020):
Non-standard residues stand in square brackets, D forms with d. No end group written: not given here. hArg = N=C(N)NCCCC[C@H](N)C(=O)O; Chg = N[C@H](C(=O)O)C1CCCCC1; Phg = N[C@H](C(=O)O)c1ccccc1

Molecular target: T1, Nat1 (LTIITLE) (also: TFA salt)
T1 peptide: LTIITLE
Experiment: cell-based or functional assay

Row | Binder | IC50, Thiofiavin T aggregation assay [nM]
1 | [dK][dL][dK][dW][dQ][dW] [klkwqw] | 7310
2 | LRIRRYR | 76
3 | TRIRFYR | 64
4 | [dK][dW][dR][dW][dY][dR][dR] [kwrwyrr] | 75
5 | [dR][dQ][dW][dY][dR][dW][dQ] [rqwyrwq] | 2720
6 | FRLYIH | 16400
7 | ILRLYFR | 8970
8 | [dF][dA][dR][dA][dH][dR][dR] [farahrr] | 906
9 | LWIKYHR | 76
10 | [dF][dF][dR][dF][dH][dR][dR] [ffrfhrr] | 104
11 | WTIRTWH | 784
12 | [dK][dL][dK][dK][dL][dH] [klkklh] | 71
13 | TYVYRRR | 3660
14 | IAIRRYR | 74
15 | [dQ][dV][dR][dY][dH][dK][dN] [qvryhkn] | 5700
16 | LRIYRVR | 81
17 | FFRLYLR | 13400
18 | [dR][dM][dW][dR][dH][dH][dR] [rmwrhhr] | 13200
19 | LSIRQH | 945
20 | LFRYYQK | 100
21 | TRIYRVK | 3740
22 | [dR][dF][dY][dR][dR][dH][dR] [rfyrrhr] | 81
23 | LTRILWH | 16200

Row | Binder | IC50, Thiofiavin T aggregation assay [nM]
24 | IRIRRYR | 27
25 | IRIRRYE | 32800
26 | LLAKYHR | 1730
27 | IRIRRWR | 76
28 | LRIRFFR | 90
29 | [Phg]R[Phg]RRYR [Phg-Arg-Phg-Arg-Arg-Tyr-Arg] | 5950
30 | IWIRRWR | 1900
31 | LRIKYHR | 71
32 | [dH][dQ][dR][dR][dY][dQ][dR] [hqrryqr] | 39100
33 | [dQ][dF][dH][dY][dK][dR][dR] [qfhylcrr] | 23900
34 | IFVYHH | 703
35 | WTIKLTH | 720
36 | YYIRTYH | 1600
37 | [dQ][dL][dK][dW][dL][dH] [qlkwlh] | 716
38 | Ac-IRIRRYR-NH2 [Ac-IRIRRYR-NH2] | 69
39 | [dS][dH][dW][dR][dH][dH][dR] [shwrhhr] | 2270
40 | RFYRYLR | 107
41 | TYIYRQR | 5170
42 | [dF][dW][dR][dW][dH][dR] [fwrwhr] | 88
43 | LTIRYYK | 93
44 | WTIKLWH | 84
45 | [dH][dL][dR][dI][dW][dR][dN] [hlriwrn] | 97
46 | [dQ][dW][dR][dW][dR][dH][dR] [qwrwrhr] | 3140

Row | Binder | IC50, Thiofiavin T aggregation assay [nM]
47 | IRARRYR | 1250
48 | [dR][dL][dK][dW][dR][dW] [rlkwrw] | 702
49 | I[hArg]I[hArg]RYR [Ile-homoArg-Ile-homoArg-Arg-Tyr-Arg] | 30
50 | AYYYRHR | 2120
51 | YTYMLWK | 824
52 | [dW][dW][dR][dW][dY][dR][dR] [wwrwyrr] | 78
53 | IRIRAYR | 23
54 | LVIRYHR | 101
55 | WTRITLE | 1340
56 | YRLRYLR | 99
57 | IHIEIK | 723
58 | [dK][dL][dK][dW][dL][dW] [klkwlw] | 1060
59 | TFVFRHR | 20300
60 | [dK][dY][dR][dW][dY][dR][dH] [kyrwyrh] | 87
61 | LTRILTH | 7370
62 | LYIRYLR | 70
63 | YTIQLWH | 46000
64 | LTRITLE | 1680
65 | [dI][dL][dK][dW][dL][dW] [ilkwlw] | 1340
66 | [dK][dL][dK][dW][dA][dY] [klkway] | 12600
67 | [Chg]R[Chg]RRYR [Chg-Arg-Chg-Arg-Arg-Tyr-Arg] | 67
68 | [dR][dF][dH][dR][dH][dH][dR] [rfhrhhr] | 30900
69 | IR[Chg]RRYR [Ile-Arg-Chg-Arg-Arg-Tyr-Arg] | 81
